Results taken from the supplement of paper PMC9170038.

Tested on: K4 kissing-loop RNA reporter
Test: apparent KD of K4 kissing-loop reporter; higher = weaker reporter binding
Conditions: Eterna round: R107
Experimental: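 RNA-MaP round R107: designed RNA switches with theophylline, tryptophan, arginine or FMN aptamers are transcribed on-chip within common flanks. They are titrated with a labelled K4 kissing-loop RNA reporter in RNA-MaP buffer (100 mM Tris pH 7.5, 80 mM KCl, 4 mM MgCl2), without ligand or with the indicated ligand. Median apparent KD per design.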

[1] = input ligand: theophylline 20 uM
[2] = input ligand: tryptophan 2.4 mM
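Further: bound reporter read as fluorescence of individual clusters on recovered sequencing chips by microscopy, with normalized cluster intensities fitted with a binding model.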

| Sequence | apparent KD of K4 kissing-loop reporter (input ligand: FMN 200 uM) | apparent KD of K4 kissing-loop reporter (input ligand: arginine 13.2 mM) | apparent KD of K4 kissing-loop reporter (input ligand: none) | apparent KD of K4 kissing-loop reporter [1] | apparent KD of K4 kissing-loop reporter [2] |
| --- | --- | --- | --- | --- | --- |
| UGCUUUAUCAGAAGGAGCGCGUUGGUCAUAAUAAUAAUCAGUGAUGUUGAUAUAUGAGGAUUGCAGGUAGGUCGCUGAUAUAGCU [KL-XARG-B1] | 323 nM | 210 nM | 390 nM | 255 nM | 229 nM |
| UGGACAUGACUCGAUAAGAGUCAAUGGGAUACCAGUGACGAAAGUCACCCUUGGCAGCUCAACUGCCAGUGAUGUUGGUAGUCCU [Astros-Elimod] | 205 nM | 119 nM | 207 nM | 157 nM | 125 nM |
| UGGACCAAGGAGUGAUGUUCCAAAUGUGAUACCAGCCACGAAAGUGGCCCUUGGCAGCACUGCCAGGACGAAAACGUCCGGUCCU [#SwitchBubble 12 #StaticStem #K4Early] | 358 nM | 367 nM | 391 nM | 777 nM | 261 nM |
| UGGACCAAGGAGUGAUGUUCCAUAUGUGAUACCAGCCACGAAAGUGGCCCUUGGCAGCACUGCCAGGACGAAAACGUCCGGUCCU [#SwitchBubble 13 #StaticStem #K4Early] | 390 nM | 346 nM | 503 nM | 477 nM | 321 nM |
| UGGACCAGGAGUGAUGUUCCAAAAUGUGAUACCAGCCACGAAAGUGGCCCUUGGCAGCACUGCCAGGACGAAAACGUCCGGUCCU [#SwitchBubble 11 #StaticStem #K4Early] | 285 nM | 191 nM | 278 nM | 268 nM | 154 nM |
| UGGACGUUAUACAAUAAGUAUAACUGGGAUACCAGUGACGAAAGUCACCCUUGGCAGCUCAACUGCCAGUGAUGUUGGUAGUCCA [Astros-Eli-mod#5] | 273 nM | 116 nM | 200 nM | 235 nM | 161 nM |
| UGGAGUUGACGAAAAGUCAACUCCGGAGAAGGAGCGGACGAAAGUCCAGGUAGGUCGCUCCCUACCAGUGAUGUUGGUACUGAAA | 244 nM | 241 nM | 209 nM | 319 nM | 181 nM |
| UGGAUAUAGUGAUGUUAUAUAGAGAUGGAUACCAGUUAAGAGAAUAGCCCUUGGCAGCCGAAAGAAGUAUCAUUAGAGAAGAAUG [ExTheophyl.Ad] | 261 nM | 183 nM | 239 nM | 194 nM | 195 nM |
| UGGAUAUAGUGAUGUUAUAUAGAGAUGGAUACCAGUUGAGAGAAUAGCCCUUGGCAGCCGAAAGAAGUAUCAUUAGAGAAGAAUG [ExTheophyl.Ak] | 269 nM | 200 nM | 230 nM | 219 nM | 173 nM |
| UGGAUAUAGUGAUGUUAUAUAGAGAUGGAUACCAGUUUAGAGAAGAGCCCUUGGCAGCCGAAAGAAGUAUCAUUAGAGAAGAAUG [ExTheophyl.Al] | 257 nM | 164 nM | 214 nM | 212 nM | 179 nM |
| UGGAUAUAGUGAUGUUAUAUAGAGAUUGAUACCAGUUAAGAGAAUAGCCCUUGGCAGCAGAAAGAAGUAUCAUUAGAGAAGAAUG [ExTheophyl.Ac] | 256 nM | 182 nM | 222 nM | 213 nM | 177 nM |
| UGGCGAGUGAUGUUCGUUGUUGUAGUGUGUCGAGGACCGGUACGGCCGCCACUCGAGUUGGUUGUUGUUGUUGCUGUUGUUGCUG [#03 K4 Tryptophan A Same State] | 196 nM | 158 nM | 181 nM | 157 nM | 99 nM |
| UGGCGAGUGAUGUUCGUUGUUGUAGUGUGUCGAGGACCGGUACGGCCGCCACUCGGGUUGGUUGUUGUUGUUGUUGUUGUUGUUG [First Shot] | 218 nM | 187 nM | 196 nM | 292 nM | 101 nM |
| UGGCGUAGAACCGCCGAAUCGCUGUGAGAAGGAGCGGUAAAAUUGCCAGGUAGGUCGCUCACAGCCUCACAGUGAUGUUGUGGGA [Cequralaza] | 758 nM | 105 nM | 117 nM | 290 nM | 212 nM |
| UGGGAUGUUAAAGGAUAUAGCAAGUGAUAUAAGAAAGUGAGUGAUGUUGAUGUAGGUGAUGAUAUGUUAGAAGGUUAACAAAACG [abcdefg] | 350 nM | 217 nM | 356 nM | 294 nM | 257 nM |
| UGUAAGCGCGUAGAUACCAGCAAACAAAGAGUGAUGUUCAGAUUAAGGAAAAGAAAGUAAUGCCCUUGGCAGCUAAUCAUAAGCG [Theophylline B Exclusion; Euphoria Solution] | 419 nM | 409 nM | 354 nM | 497 nM | 319 nM |
| UGUAAUGAGUGAUGUUCAUGUAGUAAGGAUACCAGUAAUUCAAAAUGCCCUUGGCAGCUUAGUUCUAUCUAUAGUUGGGUAGUGG [Theophilline A V4 (+5U)] | 162 nM | 209 nM | 205 nM | 206 nM | 123 nM |
| UGUACCGAGACAGGAUAUGUCGUCGAAAGACGAAAUGGAGUGAUGUUCCUUAAACUGCGAAAGCAGACAGAAGGGUCUUGGUACU [FmnBS 29 A10+U76] | 132 nM | 172 nM | 163 nM | 165 nM | 176 nM |
| UGUACCGAGGCAGGAUAUGUCGUCGAAAGACGAAAUGGAGUGAUGUUCCUUAAACUGCGAAAGCAGACAGAAGGGUCUUGGUACU [FmnBS 29 G10+U76] | 132 nM | 178 nM | 181 nM | 167 nM | 171 nM |
| UGUACCGAGUCAGGAUAUGGCGUCGAAAGACGAAUCCUAGUGAUGUUAGGGAUCUGCGAAAGCAGUCCAGAAGGGACUUGGUACU [FmnBS 26 #SwitchBubble #StaticStem #DoubleMagnetSystem] | 275 nM | 340 nM | 357 nM | 389 nM | 373 nM |
| UGUACCGAGUUAGGAUAUGUCGUCGAAAGACGAAAUGGAGUGAUGUUCCUUAAACUGCGAAAGCAGACAGAAGGAACUUGGUACU [FmnBS 29 U11+A75] | 190 nM | 627 nM | 544 nM | 546 nM | 476 nM |

| Sequence | apparent KD of K4 kissing-loop reporter (input ligand: FMN 200 uM) | apparent KD of K4 kissing-loop reporter (input ligand: arginine 13.2 mM) | apparent KD of K4 kissing-loop reporter (input ligand: none) | apparent KD of K4 kissing-loop reporter [1] | apparent KD of K4 kissing-loop reporter [2] |
| --- | --- | --- | --- | --- | --- |
| UGUAUGUGAUGUGAUACCAGUGAAGAGCCAGUGAUGUUGGUAGAACUGGUAUAUAAAUAACACCCUUGGCAGCACAGUCACGUAC [whbob_Ex_Theo_B_sa100] | 305 nM | 241 nM | 297 nM | 279 nM | 242 nM |
| UGUAUGUGAUUUGAUACCAGACAAGCAGGUGUGACAAGAGUGAUGUUCUUGAUGGUUUGGGUCCCUUGGCAGCAAAUCGCAUACU [KL-SSTheoB16] | 194 nM | 145 nM | 178 nM | 141 nM | 154 nM |
| UGUAUGUGAUUUGAUACCAGACCAGGUGGAGGAAUCUGAGUGAUGUUCAGGUAGGUUUGGGUCCCUUGGCAGCAAAUCGCAUACU [KL-SSTheoB18] | 173 nM | 136 nM | 149 nM | 176 nM | 158 nM |
| UGUAUGUGUCAGCGAGUGAUGUUCGACGAUACCAGACUCGAUAGAGUCCCUUGGCAGCGUAAUGCAUGCCAAACUGGCACAUACU [#SwitchBubble 13 #K4Early] | 657 nM | 532 nM | 682 nM | 594 nM | 600 nM |
| UGUCAUGGAAACAUGAACGUUAAAAUAAAUCGAGGACCGGUACGGCCGCCACUCGUAUAGCGGUCAGUGAUGUUGACUGUAAUAA [KL-SSTryp-A form2 sub10] | 101 nM | 121 nM | 110 nM | 116 nM | 94.3 nM |
| UGUCAUUGGUCGGCCGCCACUAGGACCGGGAUUUUUCUAGUGAUGUUAGUUUGGUCGGCCGCCACUAGGACCGGGACCGAUGACU [KL-SSTryp-B13 #DoubleAptamer] | 638 nM | 345 nM | 644 nM | 453 nM | 86.8 nM |
| UGUCAUUGGUCGGCCGCCACUAGGACCGGGUAUAACCUAGUGAUGUUAGUAAAUACGGCCGCCACUAGGACCGGGACCGAUGACU [KL-SSTryp-B18 #DoubleAptamer] | 415 nM | 296 nM | 583 nM | 471 nM | 102 nM |
| UGUCAUUGGUCGGCCGCCACUAGGACCGGGUUUUACCUAGUGAUGUUAGUAUAAACGGCCGCCACUAGGACCGGGACCGAUGACU [KL-SSTryp-B24 #DoubleAptamer] | 846 nM | 447 nM | 547 nM | 434 nM | 122 nM |
| UGUCAUUGGUCGGCCGCCACUAUAAUAAAAGAGUGAUGUUCUAAAAGACGGACAAAAGUCUGUCAUAGGACCGGGACCGAUGACU [TrypBS 25 #SwitchBubble #StaticStem] | 822 nM | 430 nM | 589 nM | 131 nM | 616 nM |
| UGUCAUUGGUCGGCCGCCACUUCAUAAAGAGUGAUGUUCUAAAAGACGGAUCGAAAGAUCUGUCGAAGGACCGGGACCGAUGACU [TrypBS 18 #SwitchBubble #StaticStem] | 1410 nM | 641 nM | 1200 nM | 915 nM | 279 nM |
| UGUCAUUGGUCGGCCGCCACUUCAUAAAGAGUGAUGUUCUGAAAGACGGAUCGAAAGAUCUGUCGAAGGACCGGGACCGAUGACU [FiskerMod 1 - Jieux - Same State - Tryptophan B] | 1160 nM | 1200 nM | 2080 nM | 1430 nM | 236 nM |
| UGUCAUUGGUCGGCCGCCACUUCAUAAAGAGUGAUGUUCUUAAAGACGGAUCGAAAGAUCUGUCGAAGGACCGGGACCGAUGACU [FiskerMod 8 - Jieux - Same State - Tryptophan B] | 1330 nM | 1080 nM | 1500 nM | 927 nM | 196 nM |
| UGUCAUUGGUCGGCCGCCACUUCAUGUAGAGUGAUGUUCUGUAAGACGGAUCGAAAGAUCUGUCGAAGGACCGGGACCGAUGACU [FiskerMod 13 - Jieux - Same State - Tryptophan B] | 1090 nM | 303 nM | 855 nM | 868 nM | 326 nM |
| UGUCAUUGGUCGGCCGCCACUUCGGUCAAAGACCAUAAAGAGUGAUGUUCUUAAGACGAAAGUCGAAGGACCGGGACCGAUGACU [TrypBS 11 #SwitchBubble #K4Middle] | 1110 nM | 744 nM | 1200 nM | 782 nM | 273 nM |
| UGUCAUUGGUCGGCCGCCACUUUAUAUGGAGUGAUGUUUUGUAGAUUGUGUUGAAAGGUGUGGUGAAGGACCGGGACCGAUGACU [FiskerMod 25 - Jieux - Same State - Tryptophan B] | 803 nM | 617 nM | 1010 nM | 1010 nM | 967 nM |
| UGUCAUUGGUCUGAUACCAGAAGAUAUUCUGGAGUGAUGUUCCAAGUACGACAAAGUCGCUUCCCUUGGCAGCAGACCGAUGACU [TheoBS 20 #SwitchBubble 13 #StaticStem] | 471 nM | 195 nM | 617 nM | 501 nM | 690 nM |
| UGUCAUUGGUCUGAUACCAGUUGAUGACGAAUACGUCAACUGGAGUGAUGUUCCUAAAACAACCCUUGGCAGCAGACCGAUGACU [TheoBS 1 #SwitchBubble #StaticStem] | 788 nM | 511 nM | 658 nM | 709 nM | 564 nM |
| UGUCGAGUGAUGUUCGAUUUGGUGCAUGCAGAGGAUAUAGGGUGGGCUAGAAGGCUGAAAAGUGCUUCGAGUGAUGUUCGAAGUU [Exclusion FMN A GF10] | 117 nM | 113 nM | 100 nM | 100 nM | 97.3 nM |
| UGUGUGUAGGGAAGGAGCGCCGAGAGAAGAAGAAAAGAGUGAUGUUCAAGACAAUAAAGACGGCAGGUAGGUCGCCCUGUGUGUG [Default title] | 756 nM | 706 nM | 516 nM | 517 nM | 267 nM |
| UGUGUUUACCUGACUCAGUGAUGUUGAGAAGGAGCGUGAGAAAUCACAGGUAGGUCGCUCAACCUAAAUUCAGGUGAGCACUAAA | 268 nM | 197 nM | 325 nM | 277 nM | 253 nM |
| UGUGUUUACCUGACUCAGUGAUGUUGAGAAGGAGCGUGCAAACGCACAGGUAGGUCGCUCAACCUAAAUUCAGGUGAGCACUAAA | 568 nM | 380 nM | 453 nM | 423 nM | 406 nM |
